Assay results from patent US20260234276A1 (DOMAIN THERAPEUTICS, published 2026).
Several values for one entry are separate records, joined by “and”; a condition that tells them apart may be missing. Identical values can stand only once. Blank lines part the entries; values can stand above or below the binder they belong to.

Columns and labels:
[1] = target: T1, human CCR8 (human, UniProt P51685 1-355); experiment: cell-based or functional assay
[2] = target: T1, human CCR8; experiment: cell-based or functional assay; remark: listed apart in the source
[3] = target: T2, pm4 (human, sulfated tyrosine(s) among Tyr 15, Tyr 16, Tyr 17; marked only by underlining, lost in the text); experiment: ELISA on coated peptide
Protocol: (§1) The specific binding properties of antibodies were evaluated by ELISA with coated CCR8 related peptides (500 ng/mL) in carbonate/bicarbonate buffer. Different peptides were used as described in Table 1 (see Example 1). Each anti-CCR8 mAb was tested at 1 μg/mL then diluted at 1/10. After an incubation at room temperature during 90 min, unbound mAbs were removed by washings. […] After washings, 3,3′,5,5′-tetramethylbenzidine (TMB) (Interchim, Montlugon, France) was added for 15 min. Then the optical density (OD) was determined by using a multiplate reader (Tecan, Lyon, France) and correlated with mAb reactivity on the panel of coated peptides.

[4] = target: T3, pm1 (human, sulfated tyrosine(s) among Tyr 15, Tyr 16, Tyr 17; marked only by underlining, lost in the text); experiment: ELISA on coated peptide
Protocol: as §1

[5] = target: T4, pm2 (human, sulfated tyrosine(s) among Tyr 15, Tyr 16, Tyr 17; marked only by underlining, lost in the text); experiment: ELISA on coated peptide
Protocol: as §1

[6] = target: pm5 (human, sulfated tyrosines at Y15 and Y17); experiment: ELISA on coated peptide [cont.]
In short: (§2)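 Peptides coated at 500 ng/mL in carbonate/bicarbonate buffer; anti-CCR8 mAbs applied at 1 μg/mL and a 1/10 dilution for 90 min at room temperature. After washing, TMB substrate was developed for 15 min and OD read as a measure of mAb reactivity.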

[7] = target: pm6 (human, sulfated tyrosines at Y16 and Y17); experiment: ELISA on coated peptide [cont.]
In short: as §2

[8] = target: pm8 (human, sulfated tyrosines at Y15, Y16 and Y17); experiment: ELISA on coated peptide [cont.]
In short: as §2

[9] = target: pm3 (human, sulfated tyrosine at Y17); experiment: ELISA on coated peptide [cont.]
In short: as §2

[10] = target: T1, human CCR8; experiment: flow cytometry, human activated T cells
Protocol: (§3) Briefly, 1·10⁵ cells per well in a 96 well plate were incubated with a dilution of unconjugated anti-CCR8 mAb at 10 μg/mL then diluted at 1/3.33, 4 dilution points (during 30 min at 4° C.). […] To determine EC50 value, 8 concentrations of anti-CCR8 mAb were tested. Unbound antibodies were washed away with PBS (Invitrogen by Thermofisher Scientific, Illkirch-Graffenstaden, France) supplemented by 2% Fetal Bovine Serum (Invitrogen by Thermofisher Scientific, Illkirch-Graffenstaden, France) and 2 mM EDTA (Invitrogen by Thermofisher Scientific, Illkirch-Graffenstaden, France). Subsequently, cells are centrifuged (5 min at 400 g) and bound antibody is detected with F(ab′)₂-Goat anti-Mouse IgG (H+L) Cross-Adsorbed Secondary Antibody, Alexa Fluor 488 (dilution 1/500) (Invitrogen by Thermofisher Scientific, Illkirch-Graffenstaden, France) or with F(ab′)₂-Goat anti-Human IgG Fc Secondary Antibody, PE (Invitrogen by Thermofisher Scientific, Illkirch-Graffenstaden, France) (dilution 1/1000) at 4° C. for 30 min. Detection reagent is washed away and cells are centrifuged (5 min at 400 g) and resuspended in 30 μL PBS. Bound detection antibody is quantified on a MacsQuant16 (Miltenyi, Gladbach, Germany) (B1 or B2 channel, 5000 events per acquisition).
(§4) Binding characteristics of anti-CCR8 mAb cellular reactivity was further investigated by testing their binding to activated T cells.

[11] = target: T1, human CCR8; experiment: flow cytometry, HUT78 cells (native CCR8)
Protocol: The same staining protocol was applied on human CCR8 transfected CHO cell line versus wild type CHO cell line, cutaneous T cell lymphoma HUT78 cell line and human activated T cell model.
as §3

[12] = target: T1, human CCR8; experiment: flow cytometry, human activated T cells pre-incubated with 200 nM hCCL1
Protocol: as §3, §4

[13] = target: T1, human CCR8; experiment: competition HTRF on HEK-293 cells with hCCR8; blocked ligand CCL1-AF647 [cont.]
[14] = target: T1, human CCR8; experiment: cell-based or functional assay; remark: listed apart in the source
[15] = target: T1, human CCR8; experiment: cell-based or functional assay; remark: listed apart in the source
[16] = target: T1, human CCR8; experiment: cell-based or functional assay; remark: listed apart in the source
[17] = target: T1, human CCR8; experiment: flow cytometry, hCCR8 transfected CHOK1 cells
[18] = target: T1, human CCR8; experiment: competition flow cytometry on hCCR8 transfected CHO cells; blocked ligand CCL1-AF647 [cont.]
[19] = target: CCR8 SNAP-tag (human, UniProt P51685 1-355, SNAP-tag labelled with Lumi4-Terbium); experiment: cell-based or functional assay
[20] = target: T2, pm4; experiment: ELISA on coated peptide [cont.]
In short: as §2

[21] = target: T5, pwt1 (human); experiment: ELISA on coated peptide [cont.]
T5 construct: also called unmodified peptide
In short: as §2

[22] = target: T3, pm1; experiment: ELISA on coated peptide [cont.]
In short: as §2

[23] = target: T4, pm2; experiment: ELISA on coated peptide [cont.]
In short: as §2

Chain of pm8 (human, sulfated tyrosines at Y15, Y16 and Y17) (peptide, as listed by the source): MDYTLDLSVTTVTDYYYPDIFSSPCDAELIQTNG
Chain of pm3 (human, sulfated tyrosine at Y17) (peptide, as listed by the source): as above
Chain of pm5 (human, sulfated tyrosines at Y15 and Y17) (peptide, as listed by the source): as above
T3 sequence (peptide, as listed by the source): as above
Chain of pm6 (human, sulfated tyrosines at Y16 and Y17) (peptide, as listed by the source): as above
T2 sequence (peptide, as listed by the source): as above
T4 sequence (peptide, as listed by the source): as above
T5 sequence (peptide, as listed by the source): as above

IC50 (Gi2 BRET, pH 6.5) [1]: 0.018 µg/ml and 0.117 nM | IC50 (Gi2 BRET, pH 7.4) [1]: 0.029 µg/ml and 0.194 nM | hCCL1 (100 nM) residual response, Protocol #2, mAb 0.08 µg/mL [2]: 62% | hCCL1 (100 nM) residual response, Protocol #2, mAb 0.4 µg/mL [2]: 38% | hCCL1 (100 nM) residual response, Protocol #2, mAb 10 µg/mL [2]: 30% | hCCL1 (100 nM) residual response, Protocol #3, mAb 0.05 µg/mL [2]: 94% | hCCL1 (100 nM) residual response, Protocol #3, mAb 0.5 µg/mL [2]: 63% | hCCL1 (100 nM) residual response, Protocol #3, mAb 5 µg/mL [2]: 39% | binding result [3]: binds | binding result [4]: binds | binding result [5]: binds | binding result [6]: binds | binding result [7]: binds | binding result [8]: binds | binding result [9]: binds | % of labelled cells [10]: 79% | % of labelled cells [11]: 23% | % of labelled cells [12]: 64% | IC50 (read off the curve) [13]: ~0.1 µg/mL
B1: 3-77 (antibody, human IgG1, kappa)
heavy: not shown
light: DIVMTQAAPSLSVTPGESASISCTSSKSLLHSNGNTYLYWFLQKPGQSPQLLIYRMSNLASGVPDRFSGSGSGTAFTLKISRVEAEDVGVYYCMQHREYPFTFGSGTKLEIKRTVAAPSVFIFPPSDEQLKSGTASVVCLLNNFYPREAKVQWKVDNALQSGNSQESVTEQDSKDSTYSLSSTLTLSKADYEKHKVYACEVTHQGLSSPVTKSFNRGEC
notes: humanized, human IgG1 kappa

IC50 (Gi2 BRET, pH 6.5) [1]: 0.025 µg/ml and 0.165 nM | IC50 (Gi2 BRET, pH 7.4) [1]: 0.035 µg/ml and 0.232 nM | hCCL1 (100 nM) residual response, Protocol #2, mAb 0.08 µg/mL [2]: 74% | hCCL1 (100 nM) residual response, Protocol #2, mAb 0.4 µg/mL [2]: 54% | hCCL1 (100 nM) residual response, Protocol #2, mAb 10 µg/mL [2]: 40% | hCCL1 (100 nM) residual response, Protocol #3, mAb 0.05 µg/mL [2]: 89% | hCCL1 (100 nM) residual response, Protocol #3, mAb 0.5 µg/mL [2]: 63% | hCCL1 (100 nM) residual response, Protocol #3, mAb 5 µg/mL [2]: 51% | ADCC % Max lysis, NK cells Donor 1 [14]: 30% | ADCC % Max lysis, NK cells Donor 2 [14]: 28% | ADCC EC50, NK cells Donor 1 [14]: 6.43 pM | ADCC EC50, NK cells Donor 2 [14]: 0.42 pM | ADCP % Max of phagocytosis, monocyte-derived macrophages Donor 9 [15]: 9.65% | binding result [3]: binds | binding result [4]: binds | binding result [5]: binds | binding result [6]: binds | binding result [7]: binds | binding result [8]: binds | binding result [9]: binds | % of labelled cells [11]: 32% | IC50 (read off the curve) [13]: ~0.1 µg/mL
B2: 3-78 (antibody, human IgG1, kappa)
heavy: not shown
light: B1 light
notes: humanized

IC50 (Gi2 BRET, pH 6.5) [1]: 0.019 µg/ml and 0.125 nM | IC50 (Gi2 BRET, pH 7.4) [1]: 0.011 µg/ml and 0.075 nM | hCCL1 (100 nM) residual response, Protocol #2, mAb 0.08 µg/mL [2]: 60% | hCCL1 (100 nM) residual response, Protocol #2, mAb 0.4 µg/mL [2]: 35% | hCCL1 (100 nM) residual response, Protocol #2, mAb 10 µg/mL [2]: 21% | hCCL1 (100 nM) residual response, Protocol #3, mAb 0.05 µg/mL [2]: 69% | hCCL1 (100 nM) residual response, Protocol #3, mAb 0.5 µg/mL [2]: 39% | hCCL1 (100 nM) residual response, Protocol #3, mAb 5 µg/mL [2]: 38% | Top plateau value (% of hCCL1 100 nM) with 5 µg/mL mAb, Protocol #3 [16]: 149% | binding result [6]: binds | binding result [7]: binds | binding result [8]: binds | binding result [9]: binds | % positive cells [17]: 64.7% | MFI fold change to isotype ctrl [17]: 5.63 fold | IC50 (read off the curve) [18]: ~0.3 µg/mL
B3: 3-46 (antibody, V domains shown)
VH: EVQLVETGGGLVQPKGSLKLSCAASGFTFNTNAMNWVRQAPGKGLEWVARIRSKSNYYATYYADSVKDRFTISRDDSQSMLYLQMNNLKTEDTAMYYCVRGREMGNYYSMDYWGQGTSVTVSS
VL: DIVMTQAAPSVPVTPGESVSISCRSSKSLLHSNGNTYLYWFLQRPGQSPQLLIYRMSNLASGVPDRFSGSGSGTAFTLRISRVEAEDVGVYYCMQHLEYPFTFGSGTKLEIK

IC50 (Gi2 BRET, pH 6.5) [1]: 0.678 µg/ml and 4.52 nM | IC50 (Gi2 BRET, pH 7.4) [1]: 3.43 µg/ml and 22.9 nM | hCCL1 (100 nM) residual response, Protocol #3, mAb 0.05 µg/mL [2]: 102% | hCCL1 (100 nM) residual response, Protocol #3, mAb 0.5 µg/mL [2]: 98% | hCCL1 (100 nM) residual response, Protocol #3, mAb 5 µg/mL [2]: 84% | Top plateau value (% of hCCL1 100 nM) with 5 µg/mL mAb, Protocol #3 [16]: 2880% | binding result [6]: binds | binding result [7]: binds | binding result [8]: binds | binding result [9]: binds | % positive cells [17]: 76.2% | MFI fold change to isotype ctrl [17]: 8.37 fold | IC50 (read off the curve) [18]: ~0.7 µg/mL
B4: 3-43 (antibody, V domains shown)
VH: QVQLQQPGAELVKPGASVKMSCKATGYTFTGYNMHWVKQTPGQGLEWIGAISPGKGDTSYNLKFKGKATLTTDKSSSTAYMQLSSLTSADSAVYYCARSGGTPFAYWGQGTLVTVSA
VL: DVVMTQTPLSLPVSLGDQASISCRSSQSLVHSNGDTYLYWYLQKPGQSPKLLIYKVSNRFSGVPDRFSGSGSGTDFTLKINRVEAEDLGVYFCSQSTHVPYTFGGGTKLEIK

IC50 (Gi2 BRET, pH 6.5) [1]: 0.018 µg/ml and 0.117 nM | IC50 (Gi2 BRET, pH 7.4) [1]: 0.034 µg/ml and 0.224 nM | hCCL1 (100 nM) residual response, Protocol #2, mAb 0.08 µg/mL [2]: 77% | hCCL1 (100 nM) residual response, Protocol #2, mAb 0.4 µg/mL [2]: 66% | hCCL1 (100 nM) residual response, Protocol #2, mAb 10 µg/mL [2]: 41% | hCCL1 (100 nM) residual response, Protocol #3, mAb 0.05 µg/mL [2]: 73% | hCCL1 (100 nM) residual response, Protocol #3, mAb 0.5 µg/mL [2]: 52% | hCCL1 (100 nM) residual response, Protocol #3, mAb 5 µg/mL [2]: 37% | % of internalization at 1 µg/ml mAb (HTRF) [19]: 44% | % of internalization at 10 µg/ml mAb (HTRF) [19]: 36% | binding result [20]: binds | binding result [6]: binds | binding result [7]: binds | binding result [8]: binds | binding result [21]: binds | binding result [22]: binds | binding result [23]: binds | binding result [9]: binds | % of labelled cells [11]: 88% | EC50 [11]: 200 pM
B5: 3-81 (antibody, human IgG1, kappa, V domains shown)
VH: QVQLQQSGPEVVKPGASVKVSCKTSGYTFTEYTIHWVRQSHGQSLEWVGGINPNNGNTRYDQKFKGRVTITIDKSSSTAYMELRSLTSEDTAVYYCARVARSSGSGPYAMDYWGQGTTVTVSS
VL: DVVMTQSPLSLPVTLGDQASISCRCSQSLLHTNGDTYLHWYLQRPGQSPRLLIYKVSNRFSGVPDRFSGSGSGTDFTLKISRVEAEDVGVYFCSQSTHVPYTFGGGTKVEIKR
notes: humanized, human IgG1 kappa
